Results published in patent publication US20120275997A1 (published 2012).
Substitutions are numbered along the chain they refer to. Each block holds one binder with its values, some of them ahead of it.

Key:
[1] = target: T1, recombinant large extracellular loop EC2 of human CD151 (human, UniProt P48509 113-221, limits assumed); experiment: cross-blocking ELISA on recombinant EC2; competitor murine 214B2
T1 construct: also called recombinant EC2 loop; extracellular loop 2
T1 sequence (looked up): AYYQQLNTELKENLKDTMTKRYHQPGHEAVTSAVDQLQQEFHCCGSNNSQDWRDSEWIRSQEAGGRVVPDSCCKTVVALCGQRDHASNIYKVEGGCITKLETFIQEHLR
Experimental: FIG. 18 illustrates the Cross blocking of the murine antibody […] by the chimeric […] and different variants of the humanized 214B2. The activity of the humanized variants of 214B2 (hz214B2) to cross block the parental antibody m214B2 was evaluated by ELISA using the recombinant extracellular loop 2 (EC2) of human antigen CD151. The activity of the humanized variants was compared to the chimeric 214B2.
The affinity of the humanized variants to the epitope of the parental antibody was evaluated by cross blocking the parental antibody with the humanized antibody. The parental antibody concentration was kept constant and the humanized antibody serial diluted. The chimeric antibody served as a positive control and as a reference in these experiments. The humanized antibodies were evaluated by there affinity in ELISA and flow cytometry assays. In the ELISA based assay the second extracellular domain (EC2) of the human CD151 was expressed recombinantly and purified by the six histidine tag. Purified EC2 protein was used to coated ELISA plates and binding of humanized anti-CD151 antibodies was measured indirectly by detecting the murine parental antibody with HRP conjugated anti-mouse IgG antibodies. Binding to CD151 of humanized anti-CD151 antibodies was evaluated by flow cytometry using the human prostate cancer cell line PC3. The affinity was determined by cross blocking the biotinylated parental murine anti-CD151 antibody. The biotinylated antibody was detected using fluorescein conjugated streptavidin. Affinity constant (Kd) was measured by BIACore analysis.

[2] = target: human CD151 protein (human) (UniProt P48509); experiment: flow cytometry on NIH3T3-CD151 cells, antibody at 10 ug/ml
human CD151 protein (human), sequence (P48509 whole entry): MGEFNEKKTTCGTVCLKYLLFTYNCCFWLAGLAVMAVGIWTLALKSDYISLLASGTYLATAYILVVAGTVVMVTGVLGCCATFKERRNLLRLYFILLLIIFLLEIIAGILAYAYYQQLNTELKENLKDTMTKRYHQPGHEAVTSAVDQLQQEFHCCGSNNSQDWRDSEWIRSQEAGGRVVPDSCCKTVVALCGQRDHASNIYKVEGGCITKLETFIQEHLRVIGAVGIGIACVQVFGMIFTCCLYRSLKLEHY

[3] = target: human CD151 protein (human) (UniProt P48509); experiment: flow cytometry on BxPC3 cells, antibody at 10 ug/ml
[4] = target: human CD151 protein (human) (UniProt P48509); experiment: flow cytometry on DU145 cells, antibody at 10 ug/ml
[5] = target: human CD151 protein (human) (UniProt P48509); experiment: flow cytometry on PC3 cells, undiluted hybridoma supernatant
[6] = target: human CD151 protein (human) (UniProt P48509); experiment: flow cytometry on A549 cells, antibody at 10 ug/ml
[7] = target: T1, recombinant large extracellular loop …; experiment: competition ELISA on recombinant EC2; competitor murine 203B6 at 80 ng/ml, detected with anti-mouse IgG
Experimental: (§1) Cross-competition experiments were further performed by ELISA to evaluate the ability of the chimeric antibodies c214B2[IgG1] and c203B6[IgG1] to inhibit the binding of their corresponding murine forms to the recombinant EC2 loop. Briefly, 96-well ELISA plates were coated with recombinant EC2 at 5 μg/ml in PBS overnight at 4° C. Murine Mabs 203B6 and 214B2 at 80 ng/ml were further incubated in the absence or in the presence of increasing concentrations of their corresponding chimeric antibody forms, ranging from 0.01 to 20 μg/ml, for 1 h at 37° C. For control experiments, no murine antibody was added. Horseradish peroxidase-conjugated polyclonal goat anti-mouse IgG was added at a 1/5000 dilution in PBS and incubated for 1 h at 37° C. After incubation with the peroxidase substrate TMB for 10 min at room temperature, the reaction was stopped with 1 M sulfuric acid and the optical density at 450 nm was measured. […] IC₅₀ values, calculated by using the GraphPad Prism software, were 0.69 μg/ml and 0.71 μg/ml for c214B2[IgG1] and c203B6[IgG1], respectively.

[8] = target: human CD151 protein (human) (UniProt P48509); experiment: flow cytometry on PC3 cells
[9] = target: T1, recombinant large extracellular loop …; experiment: competition ELISA on recombinant EC2; competitor murine 214B2 at 80 ng/ml, detected with anti-mouse IgG
Experimental: as §1

B1: humanized antibody Hz214B2VLVar2VHVar3 (G1) (antibody, human IgG1, kappa, V domains shown)
VH: QVQLVQSGAEVKKPGASVKLSCKASGYTFTSSSMHWVRQAPGQGLEWMGEIHPNSGNTNNAQKFQGRATLTVDTSISTAYVELSRLRSDDTAVYYCARARSFYYAMDCWGQGTSVTVSS
VL: NIQMTQSPSSLSASVGDRVTITCRASENVGTYVNWYQQKPGKAPKLLIYGASNLQSGVPSRFSGSGSATDFTLTISSLQPEDFATYYCGQTYSFPYTFGQGTKLEIKR
notes: also called VH Var3 with VL Var2
- binding result [1]: binds

B2: humanized 214B2, VL Var1 with VH Var2 (IgG1) (antibody, V domains shown)
VH: B1 VH with L20V, A68V, V81M
VL: B1 VL with N1D, V33L, N53S, A68G
notes: also called Hz214B2VLVar1 with Hz214B2VHVar2 (G1)
- binding result [1]: binds

B3: humanized antibody Hz214B2VLVar3VHVar2 (G1) (antibody, human IgG1, kappa, V domains shown)
VH: B1 VH with L20V, A68V, V81M
VL: B1 VL with Q3V, R24K, N34S, Q55Y, Y87H
notes: also called VH Var2 with VL Var3
- binding result [1]: binds

B4: humanized antibody Hz214B2VLVar4VHVar4 (G1) (antibody, human IgG1, kappa, V domains shown)
VH: B1 VH with A61N, Q62E, Q65K
VL: B1 VL with Q3V, R24K, N34S, L54R, Q55Y, S56T, Y87H
notes: also called Hz214B2VHVar4VLVar4; Hz214B2VHVar4VLVar4 (G1)
- binding result [1]: binds

B9: chimeric antibody c203B6[IgG1] (antibody, V domains shown)
VH: EVKLVESGGGLVQPGGSLKLSCAASGFTFSTYTMSWVRQTPEKRLEWVAYISSGGGTTYYPDTVKGRFTISRDNARNTLYLQMNSLKSEDTAMYYCATPRIGTGFAYWGQGTLVTVSA
VL: DIVLSQSPASLALSLGQRATISCRASASVEYYGTSLMHWYQQKPGQPPKLLIYEASNVESGVPARFSGSGSGTDFSLNIHPVEEDDLAIYFCQQSRKAPYTFGGGTKLEIKR
notes: Mouse variable domains fused to human IgG1 / Ckappa constant domains
- IC50 [7]: 0.71 µg/mL
- antibody concentration at which the binding plateau was reached [8]: 5 µg/mL

B11: chimeric antibody c214B2[IgG1] (antibody, V domains shown)
VH: QVQLQQPGSVLVRPGASVKLSCKASGYTFTSSSMHWAKQRPGQGLEWIGEIHPNSGNTNNNEKFKGKATLTVDTSSSTAYVDLSSLSSEDSAVYYCARARSFYYAMDCWGQGTSVTVSS
VL: NIVMTQSPKSMSMSVGERVTLSCKASENVGTYVSWYQQKPEQSPKLLIYGASNRYTGVPDRFTGSGSATDFTLTISSVQAEDLADYHCGQTYSFPYTFGGGTKLEIKR
notes: Mouse variable domains fused to human IgG1 / Ckappa constant domains; also called chimeric 214B2; chimeric 241B2
- antibody concentration at which the binding plateau was reached [8]: 2.5 µg/mL
- IC50 [9]: 0.69 µg/mL

Next, values leading:

- binding result [1]: binds
B5: humanized antibody Hz214B2VLVar3VHVar3 (G1) (antibody, human IgG1, kappa, V domains shown)
VH: B1 VH
VL: B1 VL with Q3V, R24K, N34S, Q55Y, Y87H
notes: also called Hz214B2VHVar3VLVar3; Hz214B2VHVar3VLVar3 (G1)

- binding result [1]: binds
B6: humanized antibody Hz214B2VLVar2VHVar2 (G1) (antibody, human IgG1, kappa, V domains shown)
VH: B1 VH with L20V, A68V, V81M
VL: B1 VL
notes: also called VH Var2 with VL Var2

- binding result [1]: binds
B7: humanized 214B2, VL Var1 with VH Var3 (IgG1) (antibody, V domains shown)
VH: B1 VH
VL: B1 VL with N1D, V33L, N53S, A68G
notes: also called Hz214B2VLVar1 with Hz214B2VHVar3 (G1)

- MFI [2]: 540
- MFI [3]: 768
- MFI [4]: 860
- MFI [5]: 975
- MFI [6]: 675
B8: murine antibody 203B6 (antibody, mouse IgG1, V domains shown)
VH: B9 VH
VL: DIVLSQSPASLALSLGQRATISCRASASVEYYGTSLMHWYQQKPGQPPKLLIYEASNVESGVPARFSGSGSGTDFSLNIHPVEEDDLAIYFCQQSRKAPYTFGGGTKLEIK

- MFI [2]: 748
- MFI [3]: 849
- MFI [4]: 1330
- MFI [5]: 1000
- MFI [6]: 820
B10: murine antibody 214B2 (antibody, mouse IgG1, V domains shown)
VH: B11 VH
VL: NIVMTQSPKSMSMSVGERVTLSCKASENVGTYVSWYQQKPEQSPKLLIYGASNRYTGVPDRFTGSGSATDFTLTISSVQAEDLADYHCGQTYSFPYTFGGGTKLEIK
